Results as given in PMC3458930.

Experiments:
caspase-3 = caspase-3 (UniProt P42574); experiment: co-immunoprecipitation, Flag-tagged αB-crystallin; settings: reference: wild type; sites S45
caspase-7 = caspase-7 (UniProt P55210); experiment: co-immunoprecipitation, Flag-tagged αB-crystallin; settings: reference: wild type; sites S45

αB-crystallin (from UniProt P02511) S45A
binding against the reference (caspase-3): weaker | binding against the reference (caspase-7): weaker
